Test results taken from patent publication US7301005B2, “Immunomodulatory peptides derived from heat shock proteins and uses thereof” (priority 2000, dated 2007).

Legend:
[1] = test system: SFMC from patients with oJIA; experiment: Proliferative response of SFMC incubated with dnaJ and restimulated with autologous feeder cells plus peptide; type: cell-based, human; conditions: persistent n=16, extended n=15; p=0.05
Description: Results, expressed as stimulation index (SI), are shown as mean+SD.
In order to identify possible relevant epitopes on the bacterial dnaJ protein, PBMC and SFMC of patients with oJIA were incubated for 72 hr with dnaJ, and restimulated with autologous feeder cells the in presence or absence of selected E. coli derived MHC class II binder peptides for 96 hr.
(§1) In order to evaluate whether human homologous peptides could be the target of cross-recognition leading to self reactivity, human peptides derived from regions of HSJ1, HDJ1, or HDJ2 having sequence homology with E. coli dnaJ were studied. SFMC of 14 patients with oJIA presenting a SI to the recombinant E. coli hsp dnaJ greater than 3 were restimulated for 96 hr with autologous cells in presence or absence of human peptide 2, 3, or 5, which are homologs of bacterial peptide 4; human peptide 20, 21, or 23, which are homologs of bacterial peptide 22; or human peptide 164, 167, or 176, which are homologs of bacterial peptide 174. SFMC proliferative responses, pro-inflammatory cytokine production, and anti-inflammatory IL-4 levels were overall similar between the peptides derived from human dnaJ proteins and the homologous bacterial peptides.
Results are expressed as SI or pg/ml (mean+SD). […]
To explore the possible correlation of clinical features with the development of peptide-induced immune modulation, oJIA patients were grouped according to the course of disease, including those with persistent disease (n=16), and those with extended disease (n=15) o-JIA. (FIG. 25).

[2] = test system: SFMC from patients with oJIA; experiment: Cytokine production in culture supernatants of SFMC incubated with dnaJ and restimulated with autologous feeder cells plus peptide; type: cell-based, human
From the text: Results are expressed as pg/ml (mean+SD).
Cytokine production to the same peptides was examined in culture supernatants of SFMC from patients with oJIA. […] SFMC from only one of 21 patients with oJIA produced detectable levels of the anti-inflammatory cytokine IL-10, and none produced detectable levels of IL-4.
as §1
Results are expressed as SI or pg/ml (mean+SD).

[3] = test system: SFMC from patients with persistent oJIA; experiment: FACS analysis of CTLA+/CD25/CD4 positive cells after peptide stimulation; type: cell-based, human; conditions: FIG. 24A
From the text: “TC” indicates tissue culture not stimulated. Bars represent SD.
FACS analysis was used to evaluate the percent of CTLA+/CD25/CD4 positive cells following stimulation of representative SFMC from patients with persistent oJIA with non-homologous human peptide 134. The % of CTLA+/CD25/CD4 positive cells, which are believed to have a regulatory function, was higher in the peptide treated cells as compared to cells maintained under control conditions (FIG. 24A). Expansion of the regulatory cells in response to peptide 134 correlated well with production of IL-10 in the same culture conditions (FIG. 24B).

RA patients = experiment: Phase I clinical trial of mucosal tolerization to dnaJP1; type: in vivo, human; conditions: 15 RA patients, by mouth, 6 months
Description: FIGS. 26A to 26E show the results of treatment-induced modulation of T cell responses to dnaJP1. […] Evaluation was performed at monthly intervals. Controls included PHA as a general mitogen and dnaJpv (SEQ ID NO:28). Evaluation by FACS at monthly intervals of intracellular cytokine production (pro-inflammatory—FIGS. 26 B, C and D; toleragenic—FIG. 26E) by PBMC of the patients who were responsive at the screening. Results are expressed as % CD3+ cells in dnaJP1 stimulated/unstimulated cultures.
In the Phase I clinical trial, 15 RA patients were treated with three different doses of dnaJP1 (four times per day, by mouth) for 6 months. Entry criteria required clinically active disease and pro-inflammatory T cell responsiveness in vitro to the peptide.

[4] = test system: peripheral blood mononuclear cells (PBMC); experiment: Proliferative response (stimulation index) of PBMC stimulated with antigen for 96 hr; type: cell-based, human; conditions: 10 healthy subjects vs 21 patients with oJIA
[5] = test system: synovial fluid mononuclear cells (SFMC) from patients with oJIA; experiment: Proliferative response (stimulation index) of SFMC stimulated with antigen for 96 hr; type: cell-based, human; conditions: for ratio SI SFMC/SI PBMC, dnaJ compared with TT: paired PBMC-SFMC samples from oJIA patients
[6] = test system: CD3+CD69+ cells in PBMC and SFMC; experiment: Evaluation of activated CD3+CD69+ T cells after incubation with recombinant E. coli hsp dnaJ; type: cell-based, human; conditions: p=0.0002
Description: FIG. 1B provides an evaluation of CD69+ T cells from healthy subjects (CTRL) and patients with oJIA following 72 hour incubation with recombinant E. coli hsp dnaJ. Results, expressed as percentage CD3+CD69+ cells, are shown as mean+SD.
To evaluate whether dnaJ-specific T cells were enriched at the synovial sites of inflammation, synovial fluid mononuclear cells (SFMC) from all patients with oJIA were stimulated with dnaJ for 96 hr.

[7] = test system: PBMC and SFMC from healthy controls and patients with oJIA; experiment: Cytokine production in culture supernatants of PBMC or SFMC stimulated with recombinant E. coli hsp dnaJ for 72 hr; type: cell-based, human
Description: Results, expressed as pg/ml, are shown as mean+SD.
The production of the pro-inflammatory cytokines interferon-gamma (IFNγ) and tumor necrosis factor-alpha (TNFα), and the anti-inflammatory cytokines interleukin-4 (IL-4) and IL-10 was evaluated in culture supernatants of PBMC from healthy controls and in PBMC-SFMC paired samples from patients with oJIA incubated for 72 hr with or without dnaJ.

SGPFFTFSSSFPGHS (listed as Homo sapiens) [Peptide 134, non-homologous human peptide (HSJ1)]
Proliferative responses, extended disease vs persistent o-JIA [1]: significantly lower | IL-10 production, extended disease vs persistent o-JIA ([2]; p=0.0012): highly significant difference | IFN production, extended disease vs persistent o-JIA ([2]; p=0.076): border line level of statistical significance | % of CTLA+/CD25/CD4 positive cells vs control conditions [3]: higher

QKRAAYDQYGHAAFE (listed as Escherichia coli) [dnaJP1]
treatment-induced change of T cell cytokine responses (RA patients): dramatic immune deviation from pro-inflammatory to regulatory-type cytokines

B1: dnaJ: recombinant E. coli heat shock protein dnaJ (protein, UniProt P08622 2-376, looked up)
Chaperone protein DnaJ: AKQDYYEILGVSKTAEEREIRKAYKRLAMKYHPDRNQGDKEAEAKFKEIKEAYEVLTDSQKRAAYDQYGHAAFEQGGMGGGGFGGGADFSDIFGDVFGDIFGGGRGRQRAARGADLRYNMELTLEEAVRGVTKEIRIPTLEECDVCHGSGAKPGTQPQTCPTCHGSGQVQMRQGFFAVQQTCPHCQGRGTLIKDPCNKCHGHGRVERSKTLSVKIPAGVDTGDRIRLAGEGEAGEHGAPAGDLYVQVQVKQHPIFEREGNNLYCEVPINFAMAALGGEIEVPTLDGRVKLKVPGETQTGKLFRMRGKGVKSVRGGAQGDLLCRVVVETPVGLNERQKQLLQELQESFGGPTGEHNSPRSKSFFDGVKKFFDDLTR
Proliferative responses of PBMC, healthy subjects vs oJIA patients [4]: not significantly different | mean stimulation index (SI) of SFMC vs corresponding PBMC ([5]; oJIA patients, 96 hr, p=0.01): significantly higher | ratio SI SFMC/SI PBMC, dnaJ compared with TT [5]: significantly (p=0.038) higher | ratio SI SFMC/SI PBMC, dnaJ compared with TT ([5]; listed as recombinant dnaJ): significantly (p<0.02) greater | percentage of activated T cells (CD3+CD69+ cells), SFMC with respect to PBMC [6]: significantly higher | cytokine production from PBMC of patients and controls ([7]; 72 hr): no difference | IL-4 levels ([7]; controls and patients, supernatants from PBMC and SFMC): below the detection limit | IL-10 production, SFMC vs PBMC ([7]; oJIA patients, 72 hr): comparable in the two compartments | TNFα production, SFMC vs PBMC ([7]; oJIA patients, 72 hr): comparable in the two compartments | IFNγ production, SFMC vs PBMC ([7]; oJIA patients, 72 hr, p<0.01): significantly higher production
